Data reported in paper PMC548379.

Biological target: NF-kB p50 (rhNF-kB p50) (Homo sapiens, UniProt P19838 1-433)
Experiment: competition

NF-kB p50 (rhNF-kB p50), sequence (P19838 1-433): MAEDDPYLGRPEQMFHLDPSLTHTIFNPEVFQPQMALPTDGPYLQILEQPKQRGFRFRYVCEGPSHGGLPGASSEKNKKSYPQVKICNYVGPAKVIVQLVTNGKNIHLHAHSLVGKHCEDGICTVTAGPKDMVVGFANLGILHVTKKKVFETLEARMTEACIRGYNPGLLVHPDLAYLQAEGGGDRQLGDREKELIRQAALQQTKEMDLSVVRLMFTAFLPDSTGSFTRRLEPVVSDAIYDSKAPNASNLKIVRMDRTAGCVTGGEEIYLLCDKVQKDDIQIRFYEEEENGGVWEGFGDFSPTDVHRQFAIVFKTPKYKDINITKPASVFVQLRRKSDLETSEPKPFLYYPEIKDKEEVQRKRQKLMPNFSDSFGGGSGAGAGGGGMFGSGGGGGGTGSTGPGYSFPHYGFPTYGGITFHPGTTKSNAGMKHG

B1: cold NF-kB specific competition probe (dsDNA)
DNA 1: AGTTGAGGGGACTTTCCCAGGCTTTTT
DNA 2: GCCTGGGAAAGTCCCCTCAACTTTTTT
binding result: binds

B2: cold NF-kB nonspecific competition probe (dsDNA)
DNA 1: AGTTGAGATTACTTTCACCAGGCTTTTT
DNA 2: GCCTGTGAAAGTAATCTCAACTTTTTT
binding result: no binding
